Experimental data published in paper doi:10.1101/2024.12.02.626350 (bioRxiv, 2024).

B1: nicotinic acetylcholine receptor (nAChR) β subunit, muscle-type, Torpedo (natural protein)
chain: SVMEDTLLSVLFETYNPKVRPAQTVGDKVTVRVGLTLTNLLILNEKIEEMTTNVFLNLAWTDYRLQWDPAAYEGIKDLRIPSSDVWQPDIVLMNNNDGSFEITLHVNVLVQHTGAVSWQPSAIYRSSCTIKVMYFPFDWQNCTMVFKSYTYDTSEVTLQHALDAKGEREVKEIVINKDAFTENGQWSIEHKPSRKNWRSDDPSYEDVTFYLIIQRKPLFYIVYTIIPCILISILAILVFYLPPDAGEKMSLSISALLAVTVFLLLLADKVPETSLSVPIIIRYLMFIMILVAFSVILSVVVLNLHHRSPNTHTMPNWIRQIFIETLPPFLWIQRPVTTPSPDSKPTIISRANDEYFIRKPAGDFVCPVDNARVAVQPERLFSEMKWHLNGLTQPVTLPQDLKEAVEAIKYIAEQLESASEFDDLKKDWQYVAMVADRLFLYVFFVICSIGTFSIFLDASHNVPPDNPFA
B2: nicotinic acetylcholine receptor (nAChR) α subunit, muscle-type, Torpedo (natural protein)
chain: SEHETRLVANLLENYNKVIRPVEHHTHFVDITVGLQLIQLISVDEVNQIVETNVRLRQQWIDVRLRWNPADYGGIKKIRLPSDDVWLPDLVLYNNADGDFAIVHMTKLLLDYTGKIMWTPPAIFKSYCEIIVTHFPFDQQNCTMKLGIWTYDGTKVSISPESDRPDLSTFMESGEWVMKDYRGWKHWVYYTCCPDTPYLDITYHFIMQRIPLYFVVNVIIPCLLFSFLTGLVFYLPTDSGEKMTLSISVLLSLTVFLLVIVELIPSTSSAVPLIGKYMLFTMIFVISSIIITVVVINTHHRSPSTHTMPQWVRKIFIDTIPNVMFFSTMKRASKEKQENKIFADDIDISDISGKQVTGEVIFQTPLIKNPDVKSAIEGVKYIAEHMKSDEESSNAAEEWKYVAMVIDHILLCVFMLICIIGTVSVFAGRLIELSQEG

How the values were obtained:
[1] = biological target: T1, nicotinic acetylcholine receptor (nAChR) δ subunit, muscle-type, Torpedo (Tetronarce californica, UniProt P02718 22-522); assay: cryo-EM structure
T1 sequence: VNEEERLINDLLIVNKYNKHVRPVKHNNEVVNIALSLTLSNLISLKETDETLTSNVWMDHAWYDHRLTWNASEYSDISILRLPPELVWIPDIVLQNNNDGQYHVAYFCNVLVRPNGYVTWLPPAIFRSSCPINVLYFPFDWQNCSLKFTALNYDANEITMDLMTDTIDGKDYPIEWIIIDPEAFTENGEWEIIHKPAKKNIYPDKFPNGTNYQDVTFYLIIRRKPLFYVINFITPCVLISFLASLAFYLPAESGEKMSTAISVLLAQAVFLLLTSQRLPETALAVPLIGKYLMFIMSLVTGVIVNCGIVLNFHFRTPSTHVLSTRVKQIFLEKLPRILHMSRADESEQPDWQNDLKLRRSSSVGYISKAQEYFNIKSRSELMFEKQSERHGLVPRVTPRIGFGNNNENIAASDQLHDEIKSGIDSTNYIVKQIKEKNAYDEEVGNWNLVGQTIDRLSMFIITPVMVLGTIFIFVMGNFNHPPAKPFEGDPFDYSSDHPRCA

[2] = biological target: B1; assay: cryo-EM structure

Binder	binding result [1]	binding result [2]
B1	binds	
B2		binds
